Laboratory results published in PMC5818171, “The role of conserved residues in Fdc decarboxylase in prenylated flavin mononucleotide oxidative maturation, cofactor isomerization, and catalysis” (The Journal of Biological Chemistry, 2017).
Where a chain is given by its changes, count along the chain named. Names and notes keep the numbering of the source.

B1: S. cerevisiae Fdc1 (Saccharomyces cerevisiae S288C) (protein)
chain: MRKLNPALEFRDFIQVLKDEDDLIEITEEIDPNLEVGAIMRKAYESHLPAPLFKNLKGASKDLFSILGCPAGLRSKEKGDHGRIAHHLGLDPKTTIKEIIDYLLECKEKEPLPPITVPVSSAPCKTHILSEEKIHLQSLPTPYLHVSDGGKYLQTYGMWILQTPDKKWTNWSIARGMVVDDKHITGLVIKPQHIRQIADSWAAIGKANEIPFALCFGVPPAAILVSSMPIPEGVSESDYVGAILGESVPVVKCETNDLMVPATSEMVFEGTLSLTDTHLEGPFGEMHGYVFKSQGHPCPLYTVKAMSYRDNAILPVSNPGLCTDETHTLIGSLVATEAKELAIESGLPILDAFMPYEAQALWLILKVDLKGLQALKTTPEEFCKKVGDIYFRTKVGFIVHEIILVADDIDIFNFKEVIWAYVTRHTPVADQMAFDDVTSFPLAPFVSQSSRSKTMKGGKCVTNCIFRQQYERSFDYITCNFEKGYPKGLVDKVNENWKRYGYK
B2: S. cerevisiae Fdc1 (Saccharomyces cerevisiae S288C; E280D) (protein)
chain: B1 chain with E280D
B3: S. cerevisiae Fdc1 (Saccharomyces cerevisiae S288C; E285D) (protein)
chain: B1 chain with E285D

Columns and labels:
O=C(O)/C=C/c1ccccc1 = assay: purified protein; conditions: 50 mM KCl, 50 mM NaPi, pH 6, 25 °C, prFMN holo-enzyme
A. niger Fdc1 = A. niger Fdc1 (Aspergillus niger, UniProt A2QHE5); conditions: purified and crystallized in the dark
purified protein = substrate: O=C(O)/C=C/c1ccccc1; assay: purified protein; conditions: 50 mM KCl, 50 mM NaPi, pH 6, 25 °C, prFMN holo-enzyme; remark: listed apart in the source

Molecule	Km (O=C(O)/C=C/c1ccccc1) [µM]	kcat (O=C(O)/C=C/c1ccccc1) [s⁻¹]	crystal structure (A. niger Fdc1)	Km (purified protein) [µM]	kcat (purified protein) [s⁻¹]
A. niger Fdc1 (Aspergillus niger CBS 513.88)	10.0 ± 0.6	9.4 ± 0.1	–	–	–
A. niger Fdc1 (Aspergillus niger CBS 513.88; E282D)	50 ± 10	0.63 ± 0.04	–	–	–
Cc1cc2c3c(c1C)C(C)(C)CC=[N+]3c1c(nc([O-])[nH]c1=O)N2C[C@H](O)[C@H](O)[C@H](O)COP(=O)(O)O [prFMN^iminium]	–	–	the prFMN cofactor is exclusively in the iminium form	–	–
B1	–	–	–	25.5 ± 3.6	10.5 ± 0.4
B2	–	–	–	8.6 ± 1.5	0.92 ± 0.03
B3	–	–	–	20.4 ± 3.6	0.28 ± 0.01
